“And” between values parts separate entries of the source, which are not always exact repeats. Equal entries are not always repeated.
Tests used:
[1] = biological target: Drp6-4A (Drp6 GKFR-AAAA), N-terminal His6 tag (Tetrahymena thermophila) (UniProt Q38KF5)
[2] = biological target: Drp6-4A (Drp6 GKFR-AAAA), N-terminal His6 tag (Tetrahymena thermophila) (UniProt Q38KF5); test: SEC
SEC = biological target: the molecule itself; test: SEC

Row | GTP hydrolysis rate (colorimetric Pi release, 1 μM protein, 1 mM GTP) [1] | percent eluted in the tetramer peak (peak2) [2] | stoichiometry N [2] | Molecule | stoichiometry N (SEC)
1 | 0.83 μM /μM/min | 19% | 4 | Drp6-4A (Drp6 GKFR-AAAA), N-terminal His6 tag (from UniProt Q38KF5 1-710) (natural protein) | –
2 | – | – | – | Dynamin-related protein 6 (Drp6), wild type, N-terminal His6 tag (natural protein, Tetrahymena thermophila, UniProt Q38KF5 1-710, looked up) MTNTIVPANNFQNIKEVIKVVNKLRDFGIESDKIQLPKIVVIGVQSSGKSSLLEQIVQLDFLPRGTGVVTRCPLEIRLIEVTNQDSDFKPYAYFFEERQKIFHDFELVKKEIQKITNDFAGPGKKIVDKVITLTIYQAQCPTLTLIDLPGMTLNSVGDQKDIERVTQDMTKKYIIEKTTIILCVIPINQDLENSLALNLARSVDENGERTIGVLTMIDIMNPGTNCENVLKNRQIPLLHRYYGMKPRSQKDINENVSVQEAIQREQLYFTSHQIYSMYPEYTGTNALTNKLSTLLDSHIRTFLPSIHKKIKMTLSERIKERQQLGNEFPTEVTQQLYELTNIINTSLNLFKQAMTNYDASEIQNIGKIKVDERVGKSYADFLFDKYLLICKKISEEQVFKVKMKDLIKELGKFRVQVNGFLPFEVFESQIKQKINLYETEAIVILEQLKEHVRKVLNHCIDLFPFPNNKIKKIMQDILQNFVQTEYNFTSSHIKTAFYCYKDCICSKMIDIHETESKLKQNHVYLQNDNQQKKVLYEYISKNKSFMEWTVQEIMIKAENLCNVPITMSDLQNTYTKAEEKVQNTDEVLRYSIIYYKYMDNFRKQISDQIPQCIQSLFINSLCKNLMVKVFQAIQSKEYKEIIEKNLKEDEIIATKRAKVIQSIQKLAKANDRLERLIDQGQNCNHMLSTTYGDEENYIHESLEDSDGIDD | ≥ 6 protomers and 4

Source: paper doi:10.1101/2025.02.19.639038 (bioRxiv, 2025)
